From the DeepSol protein solubility set

Assay: soluble on expression in E. coli; label from the status in PepcDB or PDB records
In the case of “GPGSMLRLSASRRSAQNILHDIQAAVESRSIMATSSFAQRRSFLVALSEELHRNSEHIIHANRRDCDLFGRQQQQRGTPSVTIPPTLPSTSAATSLQPSSSLHGGPAGYPPFLGRPGHRVGDAQGISVAAENPATATPAPNAAEGSGASSPRRQSSLDYVAGASPVGSPDPNGAGGAAAGGRAAASPAGAGPALGETAAGSRATSTSGTAAPVSPSRWAARASSASLQLVPTAVSGHATRTEAGGGGGHLLITPDNHFLISPLRLDKLHTTIEYLLCQPDPIAIPPSCWLHDSAEGDSGAAANSLREQGSLGAAPGHNSPPPPSAAGSHAGCGRCTRRTDRLEVYELSVPLGMVGILSRFRPRISIDTVAMGLFAGNTVLLDGGVSLYNTNMALMSSVRRALTTAGLSPSAVVCVESYDAAHRSTSEWLQLSDCVDLAVVCGPPKLYQFASRYSTIPLMRATGQFSSVYVDQSASFEVALEVILNSKFQKLGAANAVTTVIVHSDFPRYTELVLALAAEGAVLLGDVTAQERVPDCVLELASEEEYQGLSQYGLRDAARTLCLKTVDSLAQALFFIESFGSKQSDCIVATDLEVCATYCRHVDTAVALVNASTRLSSGVPLGCGVDFAISTSKTHCRGPLTVEMMTTRKLVARSLSAHHGALR”, the “soluble on expression in E. coli” value was “not soluble”. In the case of “GPGSMLRWQMQPVRTSVRNFIASGFPSKKLRYARLVDVEECASRPQFQKLLQSYLSDFFAKSHENGSTGSSPWFTAVPPSLRNSVEETVNYLGMLVAIDFRHWGEDPPDATPTGSRVENICGFYAELPEGSAETSGSVSYGGKRLIRGSMAMVHLLCRAVEVYHLNWHCPQFLQQFATTEDAMEALERCFLGYREDGHTSMWMPAARERVELLLSLSRSLVEKDTSFFKMLCLSEGYLYHPIFPHLGFVEMLVELHPRYYDVCVLRGEVGGGKDSDQGDEIVIPMLKLAQLTVMAIEEAVSAMDTVAANTPNVTEAPFPFSGAHGVFKDKHHLTVCCDYQLPKALRSLGLVEYDSYLASLVDTGVLLAAGGVEECCIRVAALVASDLLLDYLRSSCACTTGREWRPESTSRVWDAPALDCMLWWIGRHYVDSAVKHHLCRTIMY”, the “soluble on expression in E. coli” value was “not soluble”. In the case of “GPGSMLTGALRLSSHRVQDFIVTTCDKAFMLSSRTRLDKKTVETILLAGYSRIPVYLNDNRRHILGTLIVQSLVILCFTNPNKPPRAGEYPLLETLRLPASTTLYNSYLAFQKNSSNMAVVYDNCGVMVGLWTLTDLLCTLYNTSPAHEGSNTHRQELMVTLLESMKAMNAARRKAQGNVNSAIESEEFFVGGRKK”, the “soluble on expression in E. coli” value was “not soluble”. With “GPGSMMMQRSQKMLLDPASFIERPPRNTLFNIVPQGHEYVVERLGRYHRTLDSGWWVVVPFIDKIRYNYNVKEQGIEIPNQSAITSDNVMVEIDGVLFLKIVDSCKASYNIENPVFNLINLAQTTMRSEIGRMSLDSLFRERASLNQSTVEVLRREANEWGIECKRYEIRDIVVSELVRRSMDLQAEAERKKRKLILESEGESTATINRANGMKIAQQCVADAEKYTAERQSEGAAAAIRVKAAAVSDNISIVSDAIEKAK” the “soluble on expression in E. coli” value was “not soluble”. In the case of “GPGSMMSLPVEAVKEFLLKLQDDICHAIEAEDEQATFMEDKWTREGGGGGRTRVIANGAVIEKGGVNFSHVYGKGLPGSSTERHPDMAGCNYQAMGVSLVIHPKNPHVPTSHANVRLFVAEKEGKEPVWWFGGGFDLTPYYAVEEDCYYFHHVAQELCRPFGADVYERFKAWCDEYFFIPHRNEARGIGGLFFDDLNEWPFEKCFAFMQAVGKGFIDAYIPIVNRRKNTPYTEQQVEFQEFRRGRYAEFNLVIDRGTKFGLQSGGRTESILMSLPPRARWGYNWHPEPGTPEARLTEYFLTKKQWV”, the “soluble on expression in E. coli” value was “soluble”. With “GPGSMNKSAKDTANPLFPATAIATIDVRAIVANYRTLAQHVAPTECSAVVKANAYGLGAHKIAPALYQAGCRTFFVAQIEEALQLKAVLPENVMIALLNGFPHKAEEFVAQSGIIPLLNSWSTIEDWQTLCQKKNKKFPAIIQVDTNMSRLGLDKKELQKLIKNPTIFEKAEIKYILSHLANGEDASHSSNNKQLAAFKRVLAQLPTCKVSFANSGGIFLGSDFYFDLVRPGIALYGVDPHGKHPTPLKAVVKVEAQVLQSRFIDAGIPVGYRESFMTRRPSTLATISIGYADGWPRILSNKGTVYFNGHKLPIVGHISMDSIIVDATDLDKKPQRGDWVELIGPHQPLEKVSTDTNTIPHEILTSLGKRYKRIYI” the “soluble on expression in E. coli” value was “soluble”. With “GPGSMNNDKSEFYITGMTAGKLPMNNQQMVGYQRRMKIQVNKLMTEKQMTRMDAAAQGNTNTFEPFARERRRATAHVEQYPNIGHSPSGDDATTPKDVIPMLLIKKQLREFGRGRLRMPFTDTLSANVEKFTTPVGQTQVTGQPEILVTEKKLSAEGI” the “soluble on expression in E. coli” value was “not soluble”. In the case of “GPGSMNNRHSGSEKTPATQKKDSLAPSATNADITKVKICSGHTRPICHINYSNIIDGTFWLVTSCHDAKPMLRNGETGDWVGTFEGHKGAVYCSVFNEDATRLVTGSGDYSSMVWNAVTGDKLHTWSHPKYIKSCDWCGNKIATGCVDGLVRIFDAQAYDANPVCFDSTEKVNQVKATYFIDHTTMVTACENTIMKWDLRDTSLPYLRKEIPGLNFLEYTHSNSIVAAHEKSISFIDTTSLEIKSSFTTSDDIECASLSPNGQNVAAGSKLKAKEFTVDGTELESHRGHHGPIFHIRWAPDGKSFTSGAEDGMARIWPSHDIIETYDNEN”, the “soluble on expression in E. coli” value was “not soluble”. In the case of “GPGSMPAINREELDRRVEQIYDQVVAWRRYIHENPDLSFEEQPTAAYIKGELQKMDAEGRWLHISQPESNCVVADLKGGGGDGPIIALRADIDALPVEELTDVPFASKKQGVMHACGHDTHAAMLLGATKLLLEDAGRIKGTVRLLFQPAEEVPPGGAQMMIEKGCMEGVAMVFAEHIIPMKEGPTGTVLVKRGPFLSSSDTLHVEIIGRGGHASMPESSIDPIAIACLAVTALQQVVSRRMPPSKCPILTITTIASSSDSYNVIPDRVTLKGTLRTQDREVRENAKKAVAEVLHGICGSYGAMCSLNWLPGYDVTVNTDSAYDVGMRVFAQVLPSKDQVVVLSACMSPSEDFSEFAKVAPANYVGIGCYNPGKGCTAVNHNAKFCVDEEAMKVGVKVHYGTIHELLMQ”, the “soluble on expression in E. coli” value was “not soluble”. With “GPGSMPAYSEVKGTCGTPVLDQLIGYYVNIQSRKMYYKDFLRIEHQAVRWAFADIRKNSEALAHGLLQTGVRPGDRVLAIQPCNCETFVLQLSCAKIGALLCIVPQDTISADKLRFYLNEFQPRHLVAREWINVPEMKQGELVERNMHFWDTIYNVIPELGLSYPGQKFQWVHSQEFYYLKKIIITDHNMNLLGVTPMRKMLVWGPFSYYEQRLRRLSALLHPDDPVLALEDPNPAMEDKLHITYSHRNCVNAGFLFGQLMQLKAETRFGVMPNHHTDPIGAIIAPYAALTSGAVLVHIHSDMFTDDHAINGIEKLCVEEVETLVGRKADFDLILKHAGNFDADQFEHLRSVVIFEDGIEAPVSEEYLNKLSKALSLDDVYVFRGPIEASYMLTWRTLKKGSQGMVPHVEAKVVGDRGTSDAKVLVAGTRGNLRLKGPHVTAGYYNNAGLMTELIDEHGFASTSREAMIDGKDNITLMSAQTY” the “soluble on expression in E. coli” value was “not soluble”. In the case of “GPGSMPVANEASSFNVLYALNKCNPKRRRWMNGWLYVNFDRATLVDGISRKAVGVVSGTGLLPNKVFKMMVEADNGAAWEMGTEVVIGQYITQIEGTTRLHLIPYTLFSGVDCIDDNAAEEVSSVELAGSSMTSRVVNVTAGFSATRADAPLSRRKTTEQLISELRGAYPQIFI”, the “soluble on expression in E. coli” value was “not soluble”. For “GPGSMQEEVTEHKYNIVFSRDPVPSGLSEEQYYPMRLSNGSAYLCVLPDITVEEKKTLQAEDSELDVPLSLEHVAVVNRALKNMCYTMEESWWTYRLCWGSGVEQFHRSAVAGDSKSNAPKQMKEDPHFVLGVAPPADVLDLRYGVNTKGLRYIYTIYSDGLTCDLTQLPRTTEVQLYCAREGEGNSPTMRVREAEVCRYIVSLTAKEVCLLGLKEIQQRYGVITCHETKPTNTVDWNNKQQG”, the “soluble on expression in E. coli” value was “not soluble”. For “GPGSMQFTVEQIRSVRNNYLEPPYPGFSLDEVVRRRRLTQTKLVRGENAWVAKGTAQTTEEWVQRLLHGTLNKLTEENKDIMIDKLLTKELFATEDIMNMVVNIIFKKALDEPENSKLYAGVCHSLALYEAKVLRDGHKGERPQSQLRDAIISTAQHEFRTLSKELSKMEDKSEEELEYERSNVMRRKRSNMRFIGELYLCTALTHSTMFTVMDLTMRCSDKTGFPSSENIELLAALLNTIGDRLDKNHKKTLDPYFTSLENFNKKSDCPYPPRIRFKIMDLLDLRKRGWGLKPKPVKAALPPSHGKDKKYATAPPPKKGGRDQGSAAAASKSWRDAATTKTGTAAAPAPSADKGLNGRGTSSAAPAANTAALSSSSASTAAATAPAGASFRDEASPQVPLVKFELRVASMFQEWVADRTNDVILHWVDQFNTCDRFFESESELCVAVAQEVIHSACTTTRKDAQREAFSFLVVGLYMIDTEVFDGFASALASAIEDGLLEDVPKFGERFMSMLRLTSTEQETRADVYFDAANVLRLTYNRLESPDDSAVDTLMSFWDRVPLPSTDEENMIRMDLDVVYSLCNPEGVQDGLEKLLSRIIHSMLQMQLMDAEVLDEFLCLDVEDGLCAKVIADYKERFPK”, the “soluble on expression in E. coli” value was “soluble”. With “GPGSMQPRKTVKKVDVEPSPEEDAELLPHLKVSAKWSERAANNGKSLSQVQFLLGALGKQLEDCNKELASVYANADLLSSLRITEYRQRNTPGGLLTPTRKARTKRNASTRPVARQQLDENSTEALIAAMDEKKRARVTAALIAFFKRDMQEQNSPAYQNASTPVPQGANHSSTRTSQTLGRIPSANSHTMLCESNKGNQPSCSNGNELPTLLSETQQQQLRRHRDIPPELWDEMAKLRLRRLSLEEKIGSLLSNINAQTERFGLLMEVQGVNSYSTESVNRAIEMIRQKRA” the “soluble on expression in E. coli” value was “soluble”. In the case of “GPGSMQQSLIPGHNNNRHLTYDEVENNIGGLPVTDNRIQDLFDSLDVDHSGTVSVEVVKKFYMGLEHYGVDLSDKELDEMVRKYAATHDESLSYEEFACFVLSLAQW”, the “soluble on expression in E. coli” value was “soluble”. With “GPGSMQRGFCRVGTVTVSQAQKRAAELINSSDGFCSNVMRTVQFTPTGVKACDGESMGFSWRANQRALNGFRSTHGGALAILADTFTQIHLGAARPAAEFRSVSFEINYLEAIPENAECTCITRIVGDGESDIHHVEYSFQDERRRKVFSRGTHVLSCTK” the “soluble on expression in E. coli” value was “soluble”. In the case of “GPGSMRNLVREGITPPVLVFVQSVERSKELYEEIRMEGLHMAIMHAKMTVEQREETVLQFRLGKIWVLVTTELLARGIDFKNVGTVINFDFPATVDSYIHRVGRTGRAGKEGTAITFFTEDDKERLPPIAKVMQDSGNAVEDWILGIKVDRSTRRRLERTTPQRTIVSTRKRMLVAQQRVQRQYRRLEAEKAAKQASKRSKGCGDCDRDDGDDSTDDA”, the “soluble on expression in E. coli” value was “soluble”. In the case of “GPGSMSEKEGKVIPETNGMKRPRFDPVKLGLPEEFTLTDYTRLKGCSCKVPQPELLALLQSVSTTPGRRDVGMDCSIVKLQHKDETGKPLYMVSTTDFFFPSVEDPYLQGQIGAANVLSDLYSTGIDRCDTVLMLLAASTDMDKTEREVCTQEMMKGFVDHVRLAGSDVTGGQTVMNPWPLIGGIATSVVAESQMIRPTGLQPGDILVLTKPLGCQIAVNLKQWLRRPSPIFEEQIQGKMDSEEIEELYNAAADGMKRLNRMAAALMHSHGAHGATDVTGFGILGHAKNLGSAQKADVCLVLDSLPMYRGAVKASKLMGDKYRLFEGYAAETSGGLLVAFGTREEAEGYIRELYETDGEPAWVVGRVVRREGSAPYALLQKDYKIIEVGAKVNDKII”, the “soluble on expression in E. coli” value was “soluble”. With “GPGSMSESCSGDYYHFVTQRSQAAEITLPIPSFCKPLAASVQPFGEGKAGLLASFFDPEQHAWVVRQLPVQESWSHQPPPSLTVRVATLVDPANLYELRVSLSSVLDGVDNDDLCALQRRSQIYGLVVEEHLADKSGAALRSAGAEGRLPQLREAVTLAAPVDVMNGFVLTGGGFLSDFPVLRDGPALPRSMNTVYDDILAGEDFCGPPMPAGGARFAGTDSAAHTSGGRGSDSPVNSNEPREYTAWSVTAAANAGLACISMGLRRRSPIEWPQLQSESQHTHSASPRERTGPGTSLAISPGPLRAKPPPSVVSDTGALAVYQCTGVPVSGLRPNEHGDGGNGAHGVVSAYSSAAVSTMAARPLLETLTLRGEVDVKLSRRDGEEWGISLPPPHGSLKFSMGPNRELVAAARRYFYCE” the “soluble on expression in E. coli” value was “not soluble”.
